Data published in patent US20200263187A1, “A METHOD FOR EXPRESSION OF A PROKARYOTIC MEMBRANE PROTEIN IN AN EUKARYOTIC ORGANISM, PRODUCTS AND USES THEREOF” (Universidade Do Minho, priority 2017, published 2020).
Like-named read-outs stand apart in the source and are kept apart here.

Columns and labels:
[1] = tested on: S. cerevisiae W303-1A jen1Δ ady2Δ cells; format: cell-based; details: for Kd (diffusion component) for lactate, non-mediated transport: cells grown in YNB lactic acid
Procedure: FIG. 4. Initial uptake rates of the radiolabelled 14C -Lactic acid at different concentrations. S. cerevisaie W303-1A jen1 Δady2Δ cells containing the plasmid pNJ-LctP-CJ-GFP and pNJ-LIdp-CJ-GFP were grown in YNB Lactic acid medium at pH 5.5 and 30° C., until mid-exponential growth phase.
In an embodiment, to confirm the successful heterologous expression of transporters in this system several studies were carried out as described in (Soares-Silva, et al. 2015): radiolabelled lactate uptake assays, growth assays in solid minimal medium with carboxylates or sugars as sole carbon source and fluorescence microscopy to detect the location of GFP fusion proteins.
The growth of the S. cerevisiae ady2Δjen1Δ strain expressing the NJ-LldP-CJ-GFP protein and control strains were evaluated in YNB media (supplemented according to the required auxotrophies) containing lactic acid (0.5%) pH 5.5 at 18° C. The S. cerevisiae ady2Δjen1Δ strains expressing the native LIdP (pLIdP), the empty vector (p416GPD) and the ScJen1p (pDS1) were used as controls.
As a control the IctP gene was cloned in the p416GPD vector. For this construct the IctP gene was amplified from S. aureus genomic DNA using the primers LcFWD and LcREV (Table 1) and inserted and ligated in the p416GPD vector using the restriction enzymes BamHI and EcoRI. […] The growth of S. cerevisiae strains was tested in YNB media (supplemented according to the required auxotrophies) containing lactic acid 0.5% (pH 5.5).

[2] = tested on: S. cerevisiae W303-1A lactic acid-grown cells; details: cited from earlier work
[3] = tested on: hxt null mutant EBY.4000 strain; details: HXT1 expressed in EBY.4000, Özcan and Johnston 1999, cited from earlier work

B1: ScJen1: S. cerevisiae lactate transporter Jen1, positive control (protein, UniProt P36035 2-616, looked up)
Carboxylic acid transporter …: SSSITDEKISGEQQQPAGRKLYYNTSTFAEPPLVDGEGNPINYEPEVYNPDHEKLYHNPSLPAQSIQDTRDDELLERVYSQDQGVEYEEDEEDKPNLSAASIKSYALTRFTSLLHIHEFSWENVNPIPELRKMTWQNWNYFFMGYFAWLSAAWAFFCVSVSVAPLAELYDRPTKDITWGLGLVLFVRSAGAVIFGLWTDKSSRKWPYITCLFLFVIAQLCTPWCDTYEKFLGVRWITGIAMGGIYGCASATAIEDAPVKARSFLSGLFFSAYAMGFIFAIIFYRAFGYFRDDGWKILFWFSIFLPILLIFWRLLWPETKYFTKVLKARKLILSDAVKANGGEPLPKANFKQKMVSMKRTVQKYWLLFAYLVVLLVGPNYLTHASQDLLPTMLRAQLGLSKDAVTVIVVVTNIGAICGGMIFGQFMEVTGRRLGLLIACTMGGCFTYPAFMLRSEKAILGAGFMLYFCVFGVWGILPIHLAELAPADARALVAGLSYQLGNLASAAASTIETQLADRYPLERDASGAVIKEDYAKVMAILTGSVFIFTFACVFVGHEKFHRDLSSPVMKKYINQVEEYEADGLSISDIVEQKTECASVKMIDSNVSKTYEEHIETV
modifications: GFP fusion
notes: S. cerevisiae lactate transporter Jen1, positive control
- Vmax for lactic acid uptake ([1]; 14C-lactic acid uptake, pH 5.0, cells grown in YNB lactic acid pH 5.5, 30° C., mid-exponential phase): 0.23±0.01 nmol s-1 mg-1 dry wt
- Km ([1]; 14C-lactic acid uptake, pH 5.0, cells grown in YNB lactic acid pH 5.5, 30° C., mid-exponential phase, read-out: Km for lactic acid uptake): 270 ± 40 µM
- Vmax for lactic acid uptake (unit not given) ([1]; positive control in FIG. 4 legend, 14C-lactic acid): 0.23
- Km ([1]; positive control in FIG. 4 legend, 14C-lactic acid, read-out: Km value for lactic acid uptake (unit inferred)): 270 µM
- Km ([2]; Casal 1999, Paiva 2013, read-out: Km for lactate uptake): 290 µM
- Vmax for lactate uptake ([2]; Casal 1999, Paiva 2013): 0.40 nmol of lactic acid s1 mg of dry weight1

B2: HXT1: S. cerevisiae low affinity glucose transporter, positive control (protein, UniProt P32465 1-570, looked up)
Low-affinity glucose …: MNSTPDLISPQKSNSSNSYELESGRSKAMNTPEGKNESFHDNLSESQVQPAVAPPNTGKGVYVTVSICCVMVAFGGFIFGWDTGTISGFVAQTDFLRRFGMKHHDGSHYLSKVRTGLIVSIFNIGCAIGGIVLAKLGDMYGRRIGLIVVVVIYTIGIIIQIASINKWYQYFIGRIISGLGVGGITVLSPMLISEVAPSEMRGTLVSCYQVMITLGIFLGYCTNFGTKNYSNSVQWRVPLGLCFAWALFMIGGMMFVPESPRYLVEAGRIDEARASLAKVNKCPPDHPYIQYELETIEASVEEMRAAGTASWGELFTGKPAMFQRTMMGIMIQSLQQLTGDNYFFYYGTIVFQAVGLSDSFETSIVFGVVNFFSTCCSLYTVDRFGRRNCLMWGAVGMVCCYVVYASVGVTRLWPNGQDQPSSKGAGNCMIVFACFYIFCFATTWAPIAYVVISECFPLRVKSKCMSIASAANWIWGFLISFFTPFITGAINFYYGYVFMGCMVFAYFYVFFFVPETKGLSLEEVNDMYAEGVLPWKSASWVPVSKRGADYNADDLMHDDQPFYKSLFSRK
- Glucose concentration at which growth is restored [3]: above 1%
- Km ([3]; read-out: Km of low-affinity glucose transport): 100000 µM

B3: pLIdP: Native E. coli LldP lactate permease cloned in p416GPD, control without eukaryotic termini (protein, UniProt P33231 1-551, looked up)
L-lactate permease: MNLWQQNYDPAGNIWLSSLIASLPILFFFFALIKLKLKGYVAASWTVAIALAVALLFYKMPVANALASVVYGFFYGLWPIAWIIIAAVFVYKISVKTGQFDIIRSSILSITPDQRLQMLIVGFCFGAFLEGAAGFGAPVAITAALLVGLGFKPLYAAGLCLIVNTAPVAFGAMGIPILVAGQVTGIDSFEIGQMVGRQLPFMTIIVLFWIMAIMDGWRGIKETWPAVVVAGGSFAIAQYLSSNFIGPELPDIISSLVSLLCLTLFLKRWQPVRVFRFGDLGASQVDMTLAHTGYTAGQVLRAWTPFLFLTATVTLWSIPPFKALFASGGALYEWVINIPVPYLDKLVARMPPVVSEATAYAAVFKFDWFSATGTAILFAALLSIVWLKMKPSDAISTFGSTLKELALPIYSIGMVLAFAFISNYSGLSSTLALALAHTGHAFTFFSPFLGWLGVFLTGSDTSSNALFAALQATAAQQIGVSDLLLVAANTTGGVTGKMISPQSIAIACAAVGLVGKESDLFRFTVKHSLIFTCIVGVITTLQAYVLTWMIP
- Kd (diffusion component) for lactate, non-mediated transport ([1]; 14C-lactic acid uptake): 47 ± 2.5 µM
- Kd (diffusion component) for lactate, non-mediated transport ([1]; 14C-lactic acid uptake, listed as Lldp): 43 ± 2 µM
- Transport mechanism for labelled lactic acid ([1]; lactic acid uptake, pH 5.0): non-mediated transport mechanism
